Blank lines part the entries; values can stand above or below the molecule they belong to.
Tests used:
[1] = target: T1, Rtt102;Arp7;Arp9;Sth1(301-1097) (budding yeast;budding yeast;budding …, UniProt P53330;Q12406;Q05123;P32597 1-157;1-477;1-467;301-1097, |||); assay: EMSA; conditions: apparent Kd, Anisotropy: 20 mM HEPES pH 7.5, 50 mM NaCl, 2.5 mM MgCl2, 5% glycerol, 1 mM DTT, 0.1 mg/mL BSA, 1 mM AMPPNP or ADP, 50 nM DNA, 20 C, EMSA: 20 mM HEPES pH 7.5 …
Target sequence in this assay (P32597 301-1097, one chain of several): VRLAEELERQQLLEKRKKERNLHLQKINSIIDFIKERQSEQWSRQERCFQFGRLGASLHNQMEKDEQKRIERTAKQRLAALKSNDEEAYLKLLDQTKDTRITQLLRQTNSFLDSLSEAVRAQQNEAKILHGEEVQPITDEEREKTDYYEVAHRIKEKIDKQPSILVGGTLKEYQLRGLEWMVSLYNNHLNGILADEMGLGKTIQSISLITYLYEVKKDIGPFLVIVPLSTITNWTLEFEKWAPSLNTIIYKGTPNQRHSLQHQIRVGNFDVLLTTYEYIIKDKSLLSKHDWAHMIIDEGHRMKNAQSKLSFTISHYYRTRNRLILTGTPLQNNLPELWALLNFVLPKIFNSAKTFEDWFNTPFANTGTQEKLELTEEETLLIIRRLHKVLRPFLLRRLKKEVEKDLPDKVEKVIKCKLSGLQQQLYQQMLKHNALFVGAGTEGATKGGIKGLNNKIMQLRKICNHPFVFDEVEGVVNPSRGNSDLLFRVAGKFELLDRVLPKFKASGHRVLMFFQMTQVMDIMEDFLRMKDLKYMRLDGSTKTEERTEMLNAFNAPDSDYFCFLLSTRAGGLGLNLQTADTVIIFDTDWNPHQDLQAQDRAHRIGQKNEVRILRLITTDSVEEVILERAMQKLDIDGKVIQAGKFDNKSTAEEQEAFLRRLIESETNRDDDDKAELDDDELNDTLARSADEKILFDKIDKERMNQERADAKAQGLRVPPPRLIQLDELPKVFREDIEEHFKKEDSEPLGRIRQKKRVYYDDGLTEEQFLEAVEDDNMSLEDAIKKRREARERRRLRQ

Sth1(301-1097) [2] = target: T2, Sth1(301-1097) (budding yeast, UniProt P32597 301-1097); assay: EMSA; conditions: apparent Kd, Anisotropy: 20 mM HEPES pH 7.5, 50 mM NaCl, 2.5 mM MgCl2, 5% glycerol, 1 mM DTT, 0.1 mg/mL BSA, 1 mM AMPPNP or ADP, 50 nM DNA, 20 C, EMSA: 20 mM HEPES pH 7.5 …
T2 sequence (P32597 301-1097): as the sequence (P32597 301-1097, one chain of several) above

[3] = target: T3, Rtt102-Arp7/9-Sth1_301–1097 (Saccharomyces cerevisiae, UniProt P32597); assay: phosphate release (MESG/purine nucleoside phosphorylase, […] nm); format: biochemical; conditions: 1 mM ATP, plasmid DNA, 2.5 mM MgCl2, pH 7.0, 22 °C; hydrolysis by the Sth1 subunit
T3 construct: gene STH1; quaternary complex; Sth1 residues 301-1097 (HSA, pHSA, ATPase domains), Ni-NTA purified; with Actin-related protein 7; Actin-like protein ARP9; Regulator of Ty1 transposition protein 102
T3 sequence (P32597 301-1097, one chain of several): as above

Rtt102-Arp7/9 = target: T4, Rtt102-Arp7/9 (Saccharomyces cerevisiae, UniProt Q12406); assay: X-ray crystallography ([…] Å); format: binding; conditions: pre-incubated with 1 mM ATP; ATP bound in nucleotide cleft of Arp7, not Arp9; no cation seen; not hydrolysed
T4 construct: heterotrimer reconstituted from Rtt102 and Arp7/9 (2:1 mix, gel filtration); Rtt102 157 aa; with Actin-like protein ARP9; Regulator of Ty1 transposition protein 102
T4 sequence (Q12406 1-477): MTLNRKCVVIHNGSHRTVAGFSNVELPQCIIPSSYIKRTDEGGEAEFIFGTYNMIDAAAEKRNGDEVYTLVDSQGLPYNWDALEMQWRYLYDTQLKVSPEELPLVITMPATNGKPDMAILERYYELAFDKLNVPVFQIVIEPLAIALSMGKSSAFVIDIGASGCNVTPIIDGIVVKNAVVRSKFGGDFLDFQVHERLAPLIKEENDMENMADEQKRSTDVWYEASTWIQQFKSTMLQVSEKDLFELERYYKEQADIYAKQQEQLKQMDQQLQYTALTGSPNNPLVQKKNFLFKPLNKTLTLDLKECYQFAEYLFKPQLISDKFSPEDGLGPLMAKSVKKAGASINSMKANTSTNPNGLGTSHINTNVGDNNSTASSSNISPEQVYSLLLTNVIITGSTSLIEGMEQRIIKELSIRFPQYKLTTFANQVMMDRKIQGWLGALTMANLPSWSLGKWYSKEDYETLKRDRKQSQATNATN
T4 sequence (Q05123 1-467 partner): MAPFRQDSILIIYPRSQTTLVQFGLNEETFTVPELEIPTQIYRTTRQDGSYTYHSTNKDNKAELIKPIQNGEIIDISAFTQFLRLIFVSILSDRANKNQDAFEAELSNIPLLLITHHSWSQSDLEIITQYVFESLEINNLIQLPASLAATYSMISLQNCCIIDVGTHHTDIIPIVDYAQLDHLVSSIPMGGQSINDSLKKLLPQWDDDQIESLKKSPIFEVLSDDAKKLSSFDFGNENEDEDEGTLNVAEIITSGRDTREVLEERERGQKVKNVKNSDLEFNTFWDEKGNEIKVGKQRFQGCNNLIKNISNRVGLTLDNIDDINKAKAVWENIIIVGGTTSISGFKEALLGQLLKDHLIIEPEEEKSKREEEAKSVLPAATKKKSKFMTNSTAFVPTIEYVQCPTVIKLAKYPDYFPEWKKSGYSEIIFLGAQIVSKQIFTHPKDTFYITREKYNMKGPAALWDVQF
T4 sequence (P53330 1-157 partner): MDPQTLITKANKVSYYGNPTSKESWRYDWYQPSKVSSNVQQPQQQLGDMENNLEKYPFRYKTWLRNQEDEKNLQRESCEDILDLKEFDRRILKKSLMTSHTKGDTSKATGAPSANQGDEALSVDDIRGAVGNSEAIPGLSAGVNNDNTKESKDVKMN

[4] = target: nucleosome (Xenopus laevis histone octamer on 601 nucleosomal DNA) (Xenopus laevis); assay: native gel or EMSA; native gel shift, 1 mM ADP; nucleosomes held constant, Sth1 constructs up to 10 μM; 20 mM HEPES pH 7.5, 50 mM NaCl, 5% glycerol, 1 mM DTT, 0.1 mg/mL BSA, 1 mM MgCl2; 30 min room temperature, gel at 4 °C; apparent KD from a single-site hyperbolic fit
[5] = target: nucleosome (Xenopus laevis histone octamer on 601 nucleosomal DNA) (Xenopus laevis); assay: native gel or EMSA; native gel shift, 1 mM AMPPNP; nucleosomes held constant, Sth1 constructs up to 10 μM; 20 mM HEPES pH 7.5, 50 mM NaCl, 5% glycerol, 1 mM DTT, 0.1 mg/mL BSA, 1 mM MgCl2; 30 min room temperature, gel at 4 °C; apparent KD from a single-site hyperbolic fit
[6] = target: Sth1(365-1097) P1swap (budding yeast; Rad54 segment from S. solfataricus) (UniProt P32597); assay: fluorescence anisotropy; conditions: nucleotide state not visible in material; Anisotropy: 20 mM HEPES pH 7.5, 50 mM NaCl, 2.5 mM MgCl2, 5% glycerol, 1 mM DTT, 0.1 mg/mL BSA, 1 mM AMPPNP or ADP, 50 nM DNA, 20 C; EMSA: 20 mM HEPES pH 7.5 …
Sequence of Sth1(365-1097) P1swap (budding yeast; Rad54 segment from S. solfataricus) (P32597 whole entry, the tested form may be a part): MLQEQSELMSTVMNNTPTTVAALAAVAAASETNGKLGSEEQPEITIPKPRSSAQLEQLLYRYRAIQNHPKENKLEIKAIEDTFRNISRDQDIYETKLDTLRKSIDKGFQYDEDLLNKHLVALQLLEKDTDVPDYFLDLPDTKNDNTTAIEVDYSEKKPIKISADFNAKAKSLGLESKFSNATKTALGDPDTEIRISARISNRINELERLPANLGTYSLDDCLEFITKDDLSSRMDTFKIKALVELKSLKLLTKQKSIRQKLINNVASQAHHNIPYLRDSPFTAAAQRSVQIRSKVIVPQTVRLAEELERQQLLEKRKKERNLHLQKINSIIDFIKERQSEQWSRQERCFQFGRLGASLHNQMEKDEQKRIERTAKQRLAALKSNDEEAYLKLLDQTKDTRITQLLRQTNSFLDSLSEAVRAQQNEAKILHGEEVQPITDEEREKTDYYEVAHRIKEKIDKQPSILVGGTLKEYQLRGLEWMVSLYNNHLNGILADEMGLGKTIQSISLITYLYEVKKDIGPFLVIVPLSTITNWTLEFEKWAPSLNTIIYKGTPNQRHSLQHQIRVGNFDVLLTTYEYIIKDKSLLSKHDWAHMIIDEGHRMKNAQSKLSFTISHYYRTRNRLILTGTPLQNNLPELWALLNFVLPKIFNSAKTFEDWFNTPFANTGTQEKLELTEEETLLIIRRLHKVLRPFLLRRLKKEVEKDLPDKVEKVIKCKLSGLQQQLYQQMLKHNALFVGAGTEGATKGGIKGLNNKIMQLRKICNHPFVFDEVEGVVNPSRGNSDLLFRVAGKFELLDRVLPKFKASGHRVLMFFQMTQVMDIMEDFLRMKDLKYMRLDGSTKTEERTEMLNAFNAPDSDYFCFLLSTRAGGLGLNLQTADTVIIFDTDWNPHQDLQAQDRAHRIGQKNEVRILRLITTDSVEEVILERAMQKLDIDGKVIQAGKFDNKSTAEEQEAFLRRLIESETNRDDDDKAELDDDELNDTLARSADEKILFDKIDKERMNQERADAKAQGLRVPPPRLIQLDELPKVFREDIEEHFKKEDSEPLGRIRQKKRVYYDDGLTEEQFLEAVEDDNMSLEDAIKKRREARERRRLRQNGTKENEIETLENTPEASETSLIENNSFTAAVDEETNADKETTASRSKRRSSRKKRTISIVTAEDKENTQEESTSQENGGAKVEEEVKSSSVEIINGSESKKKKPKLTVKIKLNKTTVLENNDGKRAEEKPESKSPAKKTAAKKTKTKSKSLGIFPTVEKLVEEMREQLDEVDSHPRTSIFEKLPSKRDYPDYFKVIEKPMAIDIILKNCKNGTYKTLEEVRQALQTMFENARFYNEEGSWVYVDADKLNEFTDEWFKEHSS

[7] = target: Rtt102-Arp7/9-bound His-HSA–pHSA fragment (budding yeast) (UniProt P32597); assay: pull-down; TEV cleavage and co-purification assay: purified Sth1 constructs at 6 μM (±Arp7/9 and Rtt102) cut with TEV protease overnight, His-tagged N-terminal fragment held on Ni-NTA resin; 20 mM HEPES pH 7.5, 500 mM NaCl, 5% glycerol, 25 mM imidazole, 1 mM MgCl2, 0.1 mM AMPPNP; eluted with 250 mM imidazole; SDS-PAGE, Coomassie
Sth1(365-1097) = Sth1(365-1097) (budding yeast, UniProt P32597 365-1097); assay: fluorescence anisotropy; nucleotide state not visible in material; Anisotropy: 20 mM HEPES pH 7.5, 50 mM NaCl, 2.5 mM MgCl2, 5% glycerol, 1 mM DTT, 0.1 mg/mL BSA, 1 mM AMPPNP or ADP, 50 nM DNA, 20 C; EMSA: 20 mM HEPES pH 7.5, 50 mM NaCl, 1 mM MgCl2, 5% glycerol, 1 mM DTT, 0.1 mg/mL BSA, 1 mM ADP or AMPPNP, room temperature; conditions: protein: recombinant; label: 5'-fluorescein; strands 21 and 22 nt: 21 bp with 1 nt 5' overhang (T) on strand 2
Sequence of Sth1(365-1097) (P32597 365-1097): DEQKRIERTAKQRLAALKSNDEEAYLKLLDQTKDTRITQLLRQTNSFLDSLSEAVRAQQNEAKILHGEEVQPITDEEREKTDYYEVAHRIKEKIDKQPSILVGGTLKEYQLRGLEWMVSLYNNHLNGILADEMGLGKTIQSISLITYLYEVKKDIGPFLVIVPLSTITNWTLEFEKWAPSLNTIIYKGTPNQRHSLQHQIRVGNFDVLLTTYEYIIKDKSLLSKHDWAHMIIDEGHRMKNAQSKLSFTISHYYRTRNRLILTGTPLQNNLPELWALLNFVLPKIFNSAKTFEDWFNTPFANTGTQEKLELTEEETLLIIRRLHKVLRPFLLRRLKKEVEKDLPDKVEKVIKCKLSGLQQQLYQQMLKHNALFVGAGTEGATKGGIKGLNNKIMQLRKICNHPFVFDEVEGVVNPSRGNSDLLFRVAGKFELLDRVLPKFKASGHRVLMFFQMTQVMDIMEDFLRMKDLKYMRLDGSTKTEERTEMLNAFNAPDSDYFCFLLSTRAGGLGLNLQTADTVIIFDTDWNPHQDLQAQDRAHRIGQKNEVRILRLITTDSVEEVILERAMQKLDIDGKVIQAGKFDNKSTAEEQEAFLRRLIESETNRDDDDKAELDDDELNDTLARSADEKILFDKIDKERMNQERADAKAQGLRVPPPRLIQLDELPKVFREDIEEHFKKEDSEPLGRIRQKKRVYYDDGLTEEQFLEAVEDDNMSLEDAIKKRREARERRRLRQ

[8] = target: T1, Rtt102;Arp7;Arp9;Sth1(301-1097); assay: fluorescence anisotropy; 1 mM AMPPNP; Anisotropy: 20 mM HEPES pH 7.5, 50 mM NaCl, 2.5 mM MgCl2, 5% glycerol, 1 mM DTT, 0.1 mg/mL BSA, 1 mM AMPPNP or ADP, 50 nM DNA, 20 C; EMSA: 20 mM HEPES pH 7.5, 50 mM NaCl, 1 mM MgCl2, 5% glycerol, 1 mM DTT, 0.1 mg/mL BSA, 1 mM ADP or AMPPNP, room temperature; conditions: protein: recombinant;recombinant;recombinant;recombinant; copies: 1;1;1;1; label: 5'-fluorescein; strands 21 and 22 nt: 21 bp with 1 nt 5' overhang (T) on strand 2
Target sequence in this assay (P32597 301-1097, chain 4 of 4, one chain of several): as the sequence (P32597 301-1097, one chain of several) above

Arp7;Arp9;Sth1(301-1097) = Arp7;Arp9;Sth1(301-1097) (budding yeast;budding yeast;budding …, UniProt Q12406;Q05123;P32597 1-477;1-467;301-1097, ||); assay: as above; conditions: protein: recombinant;recombinant;recombinant; copies: 1;1;1; label: 5'-fluorescein; strands 21 and 22 nt: 21 bp with 1 nt 5' overhang (T) on strand 2
Sequence of Arp7;Arp9;Sth1(301-1097) (P32597 301-1097, chain 3 of 3, one chain of several): as the sequence (P32597 301-1097, one chain of several) above

Sth1(301-1097) [9] = target: T2, Sth1(301-1097); assay: as above; conditions: protein: recombinant; label: 5'-fluorescein; strands 21 and 22 nt: 21 bp with 1 nt 5' overhang (T) on strand 2

Molecule: 601 nucleosome (Xenopus laevis core histone octamer)
Kd ([1]; 1 mM ADP): 510 nM
Kd ([1]; 1 mM AMPPNP): 460 nM
Kd (Sth1(301-1097) [2]; 1 mM ADP): 670 nM
Kd (Sth1(301-1097) [2]; 1 mM AMPPNP): 670 nM

Molecule: Nc1ncnc2c1ncn2[C@@H]1O[C@H](COP(=O)(O)OP(=O)(O)OP(=O)(O)O)[C@@H](O)[C@H]1O [ATP]
phosphate release (MESG/purine nucleoside phosphorylase, 360 nm) [3]: displays strong DNA-dependent ATPase activity catalyzed by subunit Sth1
X-ray crystallography (3.25 Å) (Rtt102-Arp7/9): showed the presence of ATP in the nucleotide-binding cleft of Arp7 but not Arp9

Kd [4]: 510 nM
Kd [5]: 460 nM
Molecule: Rtt102-Arp7/9-Sth1_(301–1097) quaternary complex (from UniProt P32597 301-1097; Q12406 1-477; Q05123 1-467; P53330 1-157)

Kd [4]: 670 nM
Kd [5]: 670 nM
Molecule: Sth1_(301–1097) (from UniProt P32597 301-1097) (domain or fragment)

Molecule: TCCATGTCCATGGATACGTGG / TCCACGTATCCATGGACATGGA [fluorescein DNA duplex]
Kd [6]: 520 nM

percent of the ATPase lost after passage through the Ni-NTA column [7]: 45%
Molecule: untagged ATPase fragment of TEV-cleaved Sth1_(301–1097) or Sth1_(365–1097) (from UniProt P32597 432-1097) (domain or fragment)

B1: fluorescein DNA duplex (dsDNA)
DNA 1: TCCATGTCCATGGATACGTGG
DNA 2: TCCACGTATCCATGGACATGGA
Kd (Sth1(365-1097)): 700 ± 10 nM
Kd [8]: 4200 nM
Kd (Arp7;Arp9;Sth1(301-1097)): 3000 nM
Kd (Sth1(301-1097) [9]): 280 nM
